Bridge positions count the residues as written; N and C are the ends. Square brackets hold non-standard residues; d marks the D form. Phe(4-Cl) = N[C@@H](Cc1ccc(Cl)cc1)C(=O)O; dPhe(4-Cl) = N[C@H](Cc1ccc(Cl)cc1)C(=O)O; Phe(4-F) = N[C@@H](Cc1ccc(F)cc1)C(=O)O; 2Nal = N[C@@H](Cc1ccc2ccccc2c1)C(=O)O; 3Pal = N[C@@H](Cc1cccnc1)C(=O)O
What was measured:
SSTR-2 [1] = biological target: SSTR-2 (human)
SSTR-2 [2] = biological target: SSTR-2 (human); remark: listed apart in the source

SSTR-2 (human), sequence (chain, as listed by the source): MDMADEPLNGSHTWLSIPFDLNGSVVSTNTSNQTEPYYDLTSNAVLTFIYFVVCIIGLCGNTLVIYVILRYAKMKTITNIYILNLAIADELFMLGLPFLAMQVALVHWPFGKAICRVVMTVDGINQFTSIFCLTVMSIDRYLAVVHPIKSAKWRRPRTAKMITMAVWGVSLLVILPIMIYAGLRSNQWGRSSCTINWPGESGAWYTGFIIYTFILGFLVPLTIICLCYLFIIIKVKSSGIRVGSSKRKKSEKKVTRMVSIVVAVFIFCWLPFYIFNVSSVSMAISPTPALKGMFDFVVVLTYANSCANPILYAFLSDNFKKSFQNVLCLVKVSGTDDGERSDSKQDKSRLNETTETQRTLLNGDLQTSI

Binder | IC50 (SSTR-2 [1]) | Ki (SSTR-2 [2])
H-[Phe(4-F)][dC][3Pal][dW]KIC[2Nal]-NH2 (disulfide 2-7; SMILES CC[C@H](C)[C@@H]1NC(=O)[C@H](CCCCN)NC(=O)[C@@H](Cc2c[nH]c3ccccc23)NC(=O)[C@H](Cc2cccnc2)NC(=O)[C@H](NC(=O)[C@@H](N)Cc2ccc(F)cc2)CSSC[C@@H](C(=O)N[C@@H](Cc2ccc3ccccc3c2)C(N)=O)NC1=O) [BIM 23,458] | 27.4 nM | 
H-[Phe(4-Cl)]C[3Pal][dW]KIC[2Nal]-NH2 (disulfide 2-7; SMILES CC[C@H](C)[C@@H]1NC(=O)[C@H](CCCCN)NC(=O)[C@@H](Cc2c[nH]c3ccccc23)NC(=O)[C@H](Cc2cccnc2)NC(=O)[C@@H](NC(=O)[C@@H](N)Cc2ccc(Cl)cc2)CSSC[C@@H](C(=O)N[C@@H](Cc2ccc3ccccc3c2)C(N)=O)NC1=O) [PRL-2915] |  | 12.6 nM
XCYWKTCX (cyclic disulfide; H-Cpa-cyclo[DCys-Tyr-DTrp-Lys-Thr-Cys]-Nal-NH2) [PRL-2970] |  | 25.1 nM
Ac-HFIRWF-NH2 [AC-178,335] |  | 158 nM
H-[Phe(4-Cl)]C[3Pal]WKVC[2Nal]-NH2 (cysteine pairing not given here) [BIM 23,454] | 31.6 nM | 
H-[dPhe(4-Cl)][dC][3Pal]WKVC[2Nal]-NH2 (disulfide 2-7; SMILES CC(C)[C@@H]1NC(=O)[C@H](CCCCN)NC(=O)[C@H](Cc2c[nH]c3ccccc23)NC(=O)[C@H](Cc2cccnc2)NC(=O)[C@H](NC(=O)[C@H](N)Cc2ccc(Cl)cc2)CSSC[C@@H](C(=O)N[C@@H](Cc2ccc3ccccc3c2)C(N)=O)NC1=O) [BIM 23,627] | 6.4 nM | 
